These results are taken from PMC8420576 (The EMBO Journal, 2021).

This assay concerns the target T1, SARS-CoV-2 RBD, B.1.427/B.1.429/Epsilon/Californian variant (L452R) (SARS-CoV-2, Epsilon/Californian …, L452R).
T1 construct: also called Epsilon/Californian RBD mutant; Californian L452R mutation
As to the kind of experiment: BLI. The settings on record: both partners purified.

B1: VHH antibody Re5D06, labeled with two PEG11-biotins (VHH)
VHH: QVQLVESGGGLVQPGGSLRLSCAASGITLDYYAIGWFRQAPGKEREGVSRIRSSDGSTNYADSVKGRFTMSRDNAKNTVYLQMNSLKPEDTAVYYCAYGPLTKYGSSWYWPYEYDYWGQGTQVTVSS
notes: also called Re5D06 (immobilized on BLI sensors)
In the case of B1, the equilibrium dissociation constant (Kd) (usually a measure of binding affinity in units of concentration) was roughly 0.4 nM.
